The results in this text go back to publication PMC4109681 (Molecular cell, 2013).

T1: purified Hrd1p^321-551, containing its RING finger domain (Saccharomyces cerevisiae, UniProt Q08109 321-551)
T1 sequence (looked up): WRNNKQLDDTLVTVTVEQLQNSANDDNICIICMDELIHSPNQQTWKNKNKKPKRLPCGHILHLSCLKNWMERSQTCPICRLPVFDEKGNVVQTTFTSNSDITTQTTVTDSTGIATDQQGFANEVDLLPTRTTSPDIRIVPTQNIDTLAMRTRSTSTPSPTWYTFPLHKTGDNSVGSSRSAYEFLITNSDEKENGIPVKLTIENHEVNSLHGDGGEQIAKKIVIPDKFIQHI

B1: ^15N-Ubc7p (from pET3a-GB1-His6-Thrombin-Ubc7p) (enzyme, Saccharomyces cerevisiae, UniProt Q02159 1-165, looked up)
chain: MSKTAQKRLLKELQQLIKDSPPGIVAGPKSENNIFIWDCLIQGPPDTPYADGVFNAKLEFPKDYPLSPPKLTFTPSILHPNIYPNGEVCISILHSPGDDPNMYELAEERWSPVQSVEKILLSVMSMLSEPNIESGANIDACILWRDNRPEFERQVKLSILKSLGF
modifications: 15N-labelled
B2: Ubc7p:U7BR complex (for NMR titration) (complex, Saccharomyces cerevisiae)
chain 1: B1 chain
chain 2: LLDKFHVDLNEDMSNLSFKDLDIEERKRLLVWQARKNLETKLQSDKDLQSLLT
modifications: 15N-labelled
B3: purified Doa10p^1-112 RING fragment (domain or fragment, Saccharomyces cerevisiae, UniProt P40318 1-112, looked up)
chain: MDVDSDVNVSRLRDELHKVANEETDTATFNDDAPSGATCRICRGEATEDNPLFHPCKCRGSIKYMHESCLLEWVASKNIDISKPGADVKCDICHYPIQFKTIYAENMPEKIP

Assay [1] concerns the target GST-Cue1p^151-203 U7BR^m4 (Saccharomyces cerevisiae) (UniProt P38428). Kind of assay: pull-down.
For assay [2], the target named is T1, purified Hrd1p^321-551, containing its …. Kind of assay: NMR titration.
The assay “^15N-Ubc7p (from …)” has as its target B1. Kind of assay: NMR titration.
The target in assay [3] is B2. The assay is described as follows: NMR titration.

For the molecule “in vitro transcribed and translated ^35S-labeled Ubc7p (from UniProt Q02159 1-165) (enzyme)”, in assay [1], the loss of binding against wild-type came out at 40%. As for B1, in assay [2], the Kd (commonly the concentration at which binding is half-saturated) stood at 107 µM. As to B2, the Kd in assay [2] came out at 13.4 µM. Against the preceding molecule, the Kd is about 8-fold lower. In the case of B3, the binding result (with ^15N-Ubc7p (from …); in assay [3]) was “binds” throughout.
